# Results reported in patent US12441811B2, “Compositions and methods for treating serpin B13 disorders” (REGENTS OF THE UNIVERSITY OF MINNESOTA, priority 2019, dated 2025).
# Entries after “also recorded” stand apart in the source; their conditions may differ.
# B1: B29: mouse monoclonal antibody to serpin B13, clone B29; heavy chain SEQ ID NO:14, kappa light chain SEQ ID NO:16 (antibody, V domains shown)
# VH: QIQLVQSGPELKKPGETVKISCKASGYTFTTYGMSWVKQAPGKGLKWMGWINTYSGMPTYADDFKGRFAFSLETSATTAYLQINNLKNEDTATYFCARPLLGLDYWGQGTTLTVSS
# VL: DIVMTQTPLSLSVTIGQPASISCKSSQSLLHSDGKTFLNWFLQRPGQSPKLLIYLVSKLESGIPDRFSGSGSGTDFTLKISRVEVEDLGVYYCLQHTHFPLTFGAGTKLEIK
# System: Ngn3+ endocrine progenitor cells
# Experiment: Ngn3+ cells in embryonic pancreas after antibody injection into pregnant mice
# Type: in vivo, mouse
# Details: for number of Ngn3+ cells in the embryonic pancreas: pregnant mice i.p. 50 μg daily E10.5 through E13.5, E16.5 and birth, vs control Ab
# Protocol: The control mouse mAb (clone TIB92) was from ATCC (Manassas, VA, USA). The recombinant human control Ab (cat. No 403502) was from BioLegend (San Diego, CA). In most of the experiments, anti-serpinB13 mAb (clone B29) or control mouse mAb was injected i.p. into pregnant female mice at 50 μg for four consecutive days, starting at gestational day E10.5 (total dose of 200 μg). In the lineage tracing experiments in adult mice, B29 was injected i.p. for 7 days at 100 μg/injection during the first week after STZ treatment (total dose of 700 μg).
# Processing of pancreatic tissue for immunofluorescence microscopy. The pancreatic tissues were isolated and fixed either overnight (adult pancreases), or for one hour (embryonic pancreas explants), in 2% PFA (pH 7.4), followed by a two-step saturation process: first in a 30% sucrose solution in PBS and then in optimal cutting temperature (OCT) compound. After complete saturation, the tissues were imbedded in OCT using Cryomold and then snap frozen in an ethanol/dry ice bath. The OCT blocks were serially cut through the entire organ to obtain representative sections every 600 μm (6 to 8 sections per adult pancreas), 50 μm (12 to 14 sections per E16.5 embryonic pancreas), 35 μm (10 to 12 sections per E14.5 embryonic pancreas), or 15 μm (10 to 12 sections per E12.5 embryonic pancreas cultured for 1 to 3 days). For the embryonic linage tracing experiments, three largest sections were taken for the analysis. For all other experiments involving immunofluorescence microscopy, all obtained sections were analyzed.
# The sections from the pancreases of embryos at age E14.5 and E16.5, and newborn pups (OP), were stained with anti-Ngn3 antibody to determine the total number of endocrine progenitors cells for all sections per explant combined (FIG. 9G, FIG. 17A). Alternatively, the sections representing the pancreases of embryos at age E12.5 (which are considerably smaller) were stained with both anti-Ngn3 and anti-CK19 antibodies to determine the fraction of CK19-positive area that was occupied by Ngn3− positive staining (FIGS. 9D, 10A, 10C, 12D, 12G, 12J and FIGS. 15A, 20B). The following formula was used to adjust for any differences in the pancreas size: (Ngn3^+ cell number/μm^2 of CK19^+ cells)×10^5.
# Image analysis. […] To classify and quantify the images in unbiased fashion, we defined the following four classes for the analysis: Ngn3^+ cells, the clusters of cytokeratin 19^+ cells, the negatively stained areas, and background (e.g., the area outside of tissue sample). […] For the unbiased quantitative analysis of β-cells and islets in the whole pancreatic sections, Visiopharm Author module was trained to recognize insulin-positive β-cell clusters with diameter greater than 50 μm as well as negatively stained section area. […]
molecule,measurement,setting,value
B1,fractions of pancreatic microscopic sections positively stained with anti-insulin antibody,E16.5 embryos exposed in vivo vs control Ab,significantly higher fractions
same,Ngn3 protein levels,"Western blot, E16.5, pregnant mice i.p. 50 μg daily E10.5-E13.5",robust increase
same,number of Ngn3+ cells in the embryonic pancreas,,increased; also recorded: significant increase; also recorded: robust increase
same,number of Ngn3+ cells in the embryonic pancreas,listed as mAb,robust increase
